Results: publication PMC4948710

Assays:
[1] = target: Nematostella vectensis β-catenin, full length (Nematostella vectensis); assay: ITC
[2] = target: F-actin polymerised from chicken muscle G-actin (chicken) (UniProt P68139); assay: co-sedimentation

| Kd [1] [nM] | Kd [2] [nM] | Substance |
| --- | --- | --- |
| 7.9 | – | Nematostella vectensis Cadherin-1 cytoplasmic region (domain or fragment) |
| 1.3 | – | Nematostella vectensis Cadherin-2 cytoplasmic region (domain or fragment) |
| – | > 12000 | Nematostella vectensis α-catenin lacking the insert (residues 638-1,021 deleted) (domain or fragment) |
| – | 800 | Nematostella vectensis α-catenin, full length (natural protein) |
